The results in this text go back to article PMC8602370.

Where “and” joins values, the source holds several entries; their conditions need not be identical. Equal entries are not always repeated.

Test [1] concerns the target PARP1 (residues 1 to 1014), P09874. In words: SPR; biotinylated DNA SSB captured on a streptavidin chip, PARP1 (40 nM) flowed on to form a PARP1/DNA complex, then HPF1 injected at 62.5-2000 nM with 5 µM EB47 in the buffer; 25 mM HEPES pH 7.4, 250 mM NaCl, 0.1 mM TCEP, 1 mM EDTA, 0.05% Tween20; 1:1 model, steady-state plateaus and kinetic fit. The conditions noted are these: remark: other sources report otherwise.

Test [2] has the same target. The description is as above. Particulars: remark: other sources report otherwise. The source holds these as a separate data set.

Sequence of PARP1 (residues 1 to 1014), P09874 (P09874 whole entry, the tested form may be a part): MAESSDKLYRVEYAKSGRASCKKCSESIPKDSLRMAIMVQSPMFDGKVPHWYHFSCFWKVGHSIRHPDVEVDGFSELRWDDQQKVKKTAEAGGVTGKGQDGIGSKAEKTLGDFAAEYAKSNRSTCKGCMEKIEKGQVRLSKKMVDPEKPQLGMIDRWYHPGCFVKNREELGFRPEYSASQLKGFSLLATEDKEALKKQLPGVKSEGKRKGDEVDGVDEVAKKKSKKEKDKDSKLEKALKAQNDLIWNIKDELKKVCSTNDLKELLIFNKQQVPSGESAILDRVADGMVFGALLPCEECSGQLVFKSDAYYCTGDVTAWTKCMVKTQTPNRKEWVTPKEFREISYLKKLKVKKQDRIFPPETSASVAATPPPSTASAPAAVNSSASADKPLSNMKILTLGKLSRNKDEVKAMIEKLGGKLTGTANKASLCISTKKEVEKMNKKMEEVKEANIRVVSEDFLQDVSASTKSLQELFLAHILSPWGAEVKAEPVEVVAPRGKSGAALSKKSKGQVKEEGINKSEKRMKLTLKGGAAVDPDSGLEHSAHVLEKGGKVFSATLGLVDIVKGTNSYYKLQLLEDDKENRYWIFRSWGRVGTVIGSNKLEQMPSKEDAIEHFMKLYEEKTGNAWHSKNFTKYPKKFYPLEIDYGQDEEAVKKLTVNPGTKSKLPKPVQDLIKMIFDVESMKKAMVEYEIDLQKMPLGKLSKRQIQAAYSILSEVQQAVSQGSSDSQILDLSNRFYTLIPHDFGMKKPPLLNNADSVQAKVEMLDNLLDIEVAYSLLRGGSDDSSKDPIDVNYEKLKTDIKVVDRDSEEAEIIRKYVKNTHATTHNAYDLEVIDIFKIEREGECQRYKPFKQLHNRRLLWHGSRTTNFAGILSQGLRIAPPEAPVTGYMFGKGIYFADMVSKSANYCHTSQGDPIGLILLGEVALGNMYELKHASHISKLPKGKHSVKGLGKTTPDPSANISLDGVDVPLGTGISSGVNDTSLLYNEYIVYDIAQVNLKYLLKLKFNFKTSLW

B1: Histone PARylation Factor 1 (HPF1), Q9NWY4 1-346 (natural protein)
chain: MVGGGGKRRPGGEGPQCEKTTDVKKSKFCEADVSSDLRKEVENHYKLSLPEDFYHFWKFCEELDPEKPSDSLSASLGLQLVGPYDILAGKHKTKKKSTGLNFNLHWRFYYDPPEFQTIIIGDNKTQYHMGYFRDSPDEFPVYVGINEAKKNCIIVPNGDNVFAAVKLFLTKKLREITDKKKINLLKNIDEKLTEAARELGYSLEQRTVKMKQRDKKVVTKTFHGAGLVVPVDKNDVGYRELPETDADLKRICKTIVEAASDEERLKAFAPIQEMMTFVQFANDECDYGMGLELGMDLFCYGSHYFHKVAGQLLPLAYNLLKRNLFAEIIEEHLANRSQENIDQLAA
B1: in test [1], the Kd is 480 nM and 617 nM; the koff stood at 0.071 s⁻¹; the kon was 112000 M⁻¹ s⁻¹. Moreover, in test [2], the dissociation constant Kd was 540 nM and 550 nM; the koff was determined as 0.06 s⁻¹; the kon was 100000 M⁻¹ s⁻¹.
